The record followed here is article doi:10.1101/2022.02.09.479832v2 (biorxiv, 2022).

Where two headings read alike, the source gives them in different places.

In data set [1] the target is T1, PmIleRS1 (Priestia megaterium, UniProt A0A0B6A6A8).
T1 sequence (A0A0B6A6A8 1-921): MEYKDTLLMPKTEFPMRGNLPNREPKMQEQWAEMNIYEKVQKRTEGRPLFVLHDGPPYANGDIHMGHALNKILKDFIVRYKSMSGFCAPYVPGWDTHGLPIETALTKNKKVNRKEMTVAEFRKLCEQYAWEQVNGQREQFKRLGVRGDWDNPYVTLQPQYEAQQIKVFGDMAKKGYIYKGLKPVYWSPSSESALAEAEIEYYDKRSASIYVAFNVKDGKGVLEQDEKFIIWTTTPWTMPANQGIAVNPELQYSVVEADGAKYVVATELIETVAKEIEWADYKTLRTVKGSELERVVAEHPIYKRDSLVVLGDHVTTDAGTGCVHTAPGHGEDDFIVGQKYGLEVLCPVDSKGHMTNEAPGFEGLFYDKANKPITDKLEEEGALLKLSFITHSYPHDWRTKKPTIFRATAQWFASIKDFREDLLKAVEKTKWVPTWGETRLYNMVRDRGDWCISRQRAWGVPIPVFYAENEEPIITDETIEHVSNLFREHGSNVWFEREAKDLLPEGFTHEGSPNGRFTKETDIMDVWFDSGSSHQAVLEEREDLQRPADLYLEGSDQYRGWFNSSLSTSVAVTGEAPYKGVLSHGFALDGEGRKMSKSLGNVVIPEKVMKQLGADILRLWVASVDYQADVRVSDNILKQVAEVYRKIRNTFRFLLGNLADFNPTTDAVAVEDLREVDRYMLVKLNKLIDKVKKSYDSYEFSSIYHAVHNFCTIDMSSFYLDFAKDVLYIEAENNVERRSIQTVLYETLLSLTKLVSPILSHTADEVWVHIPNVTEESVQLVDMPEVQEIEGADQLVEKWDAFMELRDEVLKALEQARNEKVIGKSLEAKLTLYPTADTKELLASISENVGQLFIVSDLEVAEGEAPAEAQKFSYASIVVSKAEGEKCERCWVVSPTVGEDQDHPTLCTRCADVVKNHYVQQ
Nature of the data set: biochemical. The conditions noted are these: read-out: koff.

Data set [2] concerns the target T2, PmIleRS2 (Priestia megaterium, UniProt A0A0B6AVD3).
T2 sequence (A0A0B6AVD3 1-1032): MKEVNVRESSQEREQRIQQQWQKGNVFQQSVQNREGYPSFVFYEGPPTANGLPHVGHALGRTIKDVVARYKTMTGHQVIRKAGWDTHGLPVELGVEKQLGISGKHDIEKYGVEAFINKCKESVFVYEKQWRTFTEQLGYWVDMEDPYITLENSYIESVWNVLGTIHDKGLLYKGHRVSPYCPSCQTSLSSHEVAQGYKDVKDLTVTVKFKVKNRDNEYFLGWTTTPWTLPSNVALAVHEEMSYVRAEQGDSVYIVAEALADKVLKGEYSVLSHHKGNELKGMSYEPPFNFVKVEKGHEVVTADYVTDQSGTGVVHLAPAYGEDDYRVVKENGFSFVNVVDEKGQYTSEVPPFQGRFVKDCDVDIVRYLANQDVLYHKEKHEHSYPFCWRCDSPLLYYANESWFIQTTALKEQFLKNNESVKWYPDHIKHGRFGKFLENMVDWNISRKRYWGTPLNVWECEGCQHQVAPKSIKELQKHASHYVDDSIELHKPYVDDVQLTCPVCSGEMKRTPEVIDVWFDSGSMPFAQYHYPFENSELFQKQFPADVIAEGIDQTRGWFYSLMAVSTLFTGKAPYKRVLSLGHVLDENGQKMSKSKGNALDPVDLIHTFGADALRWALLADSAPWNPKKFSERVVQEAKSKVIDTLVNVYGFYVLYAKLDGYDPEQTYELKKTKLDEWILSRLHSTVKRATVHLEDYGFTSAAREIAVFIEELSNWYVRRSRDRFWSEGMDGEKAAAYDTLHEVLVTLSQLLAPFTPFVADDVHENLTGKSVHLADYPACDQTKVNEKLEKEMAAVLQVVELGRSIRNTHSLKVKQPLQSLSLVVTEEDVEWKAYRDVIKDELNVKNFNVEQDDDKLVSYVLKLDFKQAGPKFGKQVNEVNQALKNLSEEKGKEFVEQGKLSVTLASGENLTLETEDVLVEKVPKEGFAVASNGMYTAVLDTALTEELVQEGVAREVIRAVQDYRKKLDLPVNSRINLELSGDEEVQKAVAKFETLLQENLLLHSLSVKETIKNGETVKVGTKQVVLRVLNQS
Nature of the data set: biochemical.

Data set [3] has as its target T1, PmIleRS1. Nature of the data set: biochemical. The conditions noted are these: read-out: kon.
Data set [4] addresses T2, PmIleRS2. Nature of the data set: biochemical. The source holds these as a separate data set.
Data set [5] has as its target T1, PmIleRS1. Briefly: time courses fitted to slow-binding equation, Ki = koff/kon. It counts as biochemical. Particulars: competitive, tight binding, 30 °C.
Substrate in data set [6]: CC[C@H](C)[C@H](N)C(=O)O
Nature of the data set: purified protein, by the assay type. Particulars: 30.0 °C.

Substrate in data set [7]: Nc1ncnc2c1ncn2[C@@H]1O[C@H](COP(=O)(O)OP(=O)(O)OP(=O)(O)O)[C@@H](O)[C@H]1O
Nature of the data set: purified protein, by the assay type.

Substrate in data set [8]: CC[C@H](C)[C@H](N)C(=O)O
Briefly: purified protein, by the assay type.

Substrate in data set [9]: Nc1ncnc2c1ncn2[C@@H]1O[C@H](COP(=O)(O)OP(=O)(O)OP(=O)(O)O)[C@@H](O)[C@H]1O
Nature of the data set: purified protein, by the assay type. Particulars: 30.0 °C.

Substrate in data set [10]: CCC[C@H](N)C(=O)O
Nature of the data set: purified protein, by the assay type. Particulars: 30.0 °C.

Substrate in data set [11]: CC(C)[C@H](N)C(=O)O
Nature of the data set: purified protein, by the assay type. The conditions noted are these: 30.0 °C.

Substrate in data set [12]: CC[C@@H](C)[C@@H](N)C(=O)O
Nature of the data set: purified protein, by the assay type. Particulars: 30.0 °C.

As to `C/C(=C\C(=O)OCCCCCCCCC(=O)O)C[C@@H]1OC[C@H](C[C@@H]2O[C@H]2[C@@H](C)[C@H](C)O)[C@@H](O)[C@H]1O` [mupirocin], the koff in data set [1] is 0.00043 s⁻¹. Besides, the Ki in data set [2] was 1080 ± 60 nM; in data set [4] it was 1040 ± 40 nM; in data set [5], 0.285 ± 0.146 nM. Also, the kon in data set [3] is 1.51e+06 M⁻¹ s⁻¹.

B1: PmIleRS2 (Priestia megaterium NBRC 15308 = ATCC 14581) (protein)
chain: T2 sequence (A0A0B6AVD3 1-1032)
As for B1, the Km in data set [6] was 48.6 ± 1.9 µM; in [7], 76.4 ± 1.4 µM; in [7] (30.0 °C) it was “(3.8 ± 0.2) × 10^3 uM”; in data set [8] it was 6.2 ± 0.8 µM; in [8] (30.0 °C), 69.3 ± 5.5 µM; in data set [9], “(1.6 ± 0.1) × 10^3 uM”. The Km result in data set [10] is “(7.97 ± 0.84) × 10^3 uM”; in data set [11], “(5.4 ± 0.4) × 10^3 uM”; in data set [12] it was “(2.3 ± 0.1) × 10^3 uM”. The kcat/Km in data set [6] is 1.4e+06 M⁻¹ s⁻¹; in [7], 10000 M⁻¹ s⁻¹; in data set [7] (30.0 °C), 20000 M⁻¹ s⁻¹; in data set [8], 150000 M⁻¹ s⁻¹; in data set [8] (30.0 °C), 940000 M⁻¹ s⁻¹; in data set [9], 40000 M⁻¹ s⁻¹. For the same molecule, the kcat/Km in data set [10] amounted to 4100 M⁻¹ s⁻¹; in data set [11] it was 7000 M⁻¹ s⁻¹; in [12], 670 M⁻¹ s⁻¹. The kcat came to 0.96 ± 0.03 s⁻¹ in [7], 33 ± 1 s⁻¹ in data set [10], 39 ± 1 s⁻¹ in [11] and 1.54 ± 0.03 s⁻¹ in data set [12].
